{"source": "patent US20180148474A1", "about": "(KOREA UNIVERSITY RESEARCH AND BUSINESS FOUNDATION SEJONG …, published 2018)", "data": [{"molecular_target": "thymic stromal lymphopoietin (TSLP)", "sequence (Q969D9 29-159)": "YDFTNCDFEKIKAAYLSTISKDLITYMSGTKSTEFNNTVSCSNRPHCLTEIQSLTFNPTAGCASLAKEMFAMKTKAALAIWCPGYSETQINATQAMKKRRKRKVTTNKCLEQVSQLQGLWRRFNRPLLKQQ", "assay": "cell-based or functional assay", "units": {"Degrees of phosphorylation of STAT5 molecules in cells (%), 0.3 µM peptide mixed with TSLP 100 ng/mL, HMC-1 cells, flow cytometry; control with TSLP alone = 100%": "%", "Degrees of phosphorylation of STAT5 molecules in cells (%), 3 µM peptide mixed with TSLP 100 ng/mL, HMC-1 cells, flow cytometry; control with TSLP alone = 100%": "%", "Degrees of phosphorylation of STAT5 molecules in cells (%), 30 µM peptide mixed with TSLP 100 ng/mL, HMC-1 cells, flow cytometry; control with TSLP alone = 100%": "%"}, "values": [{"binder": "H-RQRASA-OH", "note": "[Compound 2 (peptide derivative of Formula 2): H2N-Arg-Gln-Arg-Ala-Ser-Ala-COOH]", "Degrees of phosphorylation of STAT5 molecules in cells (%), 0.3 µM peptide mixed with TSLP 100 ng/mL, HMC-1 cells, flow cytometry; control with TSLP alone = 100%": 84.4, "Degrees of phosphorylation of STAT5 molecules in cells (%), 3 µM peptide mixed with TSLP 100 ng/mL, HMC-1 cells, flow cytometry; control with TSLP alone = 100%": 77.9, "Degrees of phosphorylation of STAT5 molecules in cells (%), 30 µM peptide mixed with TSLP 100 ng/mL, HMC-1 cells, flow cytometry; control with TSLP alone = 100%": 69.8}, {"binder": "Ac-ARQRASA-OH", "note": "[Compound 5 (peptide derivative of Formula 5): CH3CONH-Ala-Arg-Gln-Arg-Ala-Ser-Ala-COOH]", "Degrees of phosphorylation of STAT5 molecules in cells (%), 0.3 µM peptide mixed with TSLP 100 ng/mL, HMC-1 cells, flow cytometry; control with TSLP alone = 100%": 86.1, "Degrees of phosphorylation of STAT5 molecules in cells (%), 3 µM peptide mixed with TSLP 100 ng/mL, HMC-1 cells, flow cytometry; control with TSLP alone = 100%": 84.6, "Degrees of phosphorylation of STAT5 molecules in cells (%), 30 µM peptide mixed with TSLP 100 ng/mL, HMC-1 cells, flow cytometry; control with TSLP alone = 100%": 77.1}, {"binder": "Ac-RQRASA-OH", "note": "[Compound 3 (peptide derivative of Formula 3): CH3CONH-Arg-Gln-Arg-Ala-Ser-Ala-COOH]", "Degrees of phosphorylation of STAT5 molecules in cells (%), 0.3 µM peptide mixed with TSLP 100 ng/mL, HMC-1 cells, flow cytometry; control with TSLP alone = 100%": 73.5, "Degrees of phosphorylation of STAT5 molecules in cells (%), 3 µM peptide mixed with TSLP 100 ng/mL, HMC-1 cells, flow cytometry; control with TSLP alone = 100%": 67.8, "Degrees of phosphorylation of STAT5 molecules in cells (%), 30 µM peptide mixed with TSLP 100 ng/mL, HMC-1 cells, flow cytometry; control with TSLP alone = 100%": 66.9}, {"binder": "H-ARQRASA-OH", "note": "[Compound 4 (peptide derivative of Formula 4): H2N-Ala-Arg-Gln-Arg-Ala-Ser-Ala-COOH]", "Degrees of phosphorylation of STAT5 molecules in cells (%), 0.3 µM peptide mixed with TSLP 100 ng/mL, HMC-1 cells, flow cytometry; control with TSLP alone = 100%": 71, "Degrees of phosphorylation of STAT5 molecules in cells (%), 3 µM peptide mixed with TSLP 100 ng/mL, HMC-1 cells, flow cytometry; control with TSLP alone = 100%": 68.3, "Degrees of phosphorylation of STAT5 molecules in cells (%), 30 µM peptide mixed with TSLP 100 ng/mL, HMC-1 cells, flow cytometry; control with TSLP alone = 100%": 70.9}]}]}
